Measured values reported in article PMC6509287.
Blank lines part the entries; values can stand above or below the substance they belong to.

What was measured:
TOPBP1 [1] = target: TOPBP1 (UniProt Q92547); assay: GST pull-down from nuclear extract; conditions: reference: wild-type fragment; sites S196
TOPBP1 [2] = target: TOPBP1 (UniProt Q92547); assay: HA immunoprecipitation, western blot; conditions: reference: wild type

binding against the reference (TOPBP1 [1]): lost
Substance: MDC1 109-330 (from UniProt Q14676) S196A

binding against the reference (TOPBP1 [2]; sites S196): lost
Substance: MDC1 (from UniProt Q14676) S196A

binding against the reference (TOPBP1 [2]; sites S168): lost
Substance: MDC1 (from UniProt Q14676) S168A
